Assay results reported in US20250341526A1, “NOVEL DYES” (Quantum-Si Incorporated, priority 2024, published 2025).

Tested on: amino acid at a terminal position of a polypeptide
Test: not given
Conditions: Table 2; amino acid at terminal position (phosphotyrosine also internal); inferred from literature and/or demonstrated by the inventors; cited from earlier work

| Molecule | Binding Pref. |
| --- | --- |
| PS627: amino acid recognition protein, SEQ ID NO: 187 (protein, listed as Zygosaccharomyces mellis) MPKYHQHSGRYCGRKFKVGEPIYRCHECGFDETCVICIHCFNAKDHETHHVSVSICSEYSTGICDCGDTEAFVNPLHCRAEEV | K, R, H |
| PS618: amino acid recognition protein, SEQ ID NO: 178 (protein, listed as Zygosaccharomyces bailii) MNASHKGAMCSKQCYPTETVFYCFTCTTNPLYEICESCFDEEKHRGHLYTAKVVVRPEGRVCHCGDPFVFKEPRFAFLCKN | K, R, H |
| PS539: amino acid recognition protein, SEQ ID NO: 168 (protein, listed as Kazachstania africana) MQTSFTHKGRNCGRKFKVGEPLYRCHECGFDDTCVLCIHCFNPADHENHHIYTDICNDFTSGICDCGDTEAWNGDLHCKAEEI | K, R, H |
| PS623: amino acid recognition protein, SEQ ID NO: 183 (protein, listed as Kazachstania naganishii) MSKQFRHKGRNCGRKFRLGEPLYRCQECGYDDTCVLCINCFNPKDHEGHHIYTDICNDFTSGICDCGDEEAWLSPLHCKAEED | K, R, H |
| PS538: amino acid recognition protein, SEQ ID NO: 166 (protein, listed as Saccharomyces cerevisiae) MGDVHKHTGRNCGRKFKIGEPLYRCHECGCDDTCVLCIHCFNPKDHVNHHVCTDICTEFTSGICDCGDEEAWNSPLHCKAEEQ | K, R, H |
| PS625: amino acid recognition protein, SEQ ID NO: 185 (protein, listed as Saccharomyces eubayanus) MGDVHKHTGRNCGRKFKIGEPLYRCHECGCDDTCVLCIHCFNPKDHINHHVCTDICSEFTSGICDCGDEEAWNSSLHCKAEEQ | K, R, H |
| PS25: amino acid recognition protein, SEQ ID NO: 167 (protein, listed as Saccharomyces cerevisiae) MGSVHKHTGRNCGRKFKIGEPLYRCHECGCDDTCVLCIHCFNPKDHVNHHVCTDICTEFTSGICDCGDEEAWNSPLHCKAEEQ | K, R, H |
| PS541: amino acid recognition protein, SEQ ID NO: 170 (protein, Aspergillus neoniger) MRCGHIFRAGEATYRCITCAADDTCVLCSRCFDASDHTGHQYQISLSSGNCGCCDCGDEEAWRLPLFCAIHTD | K, R, H |
| Escherichia coli leucyl/phenylalanyl-tRNA-protein transferase: amino acid recognition protein, SEQ ID NO: 111 (protein, listed as Escherichia coli) MRLVQLSRHSIAFPSPEGALREPNGLLALGGDLSPARLLMAYQRGIFPWFSPGDPILWWSPDPRAVLWPESLHISRSMKRFHKRSPYRVTMNYAFGQVIEGCASDREEGTWITRGVVEAYHRLHELGHAHSIEVWREDELVGGMYGVAQGTLFCGESMFSRMENASKTALLVFCEEFIGHGGKLIDCQVLNDHTASLGACEIPRRDYLNYLNQMRLGRLPNNFWVPRCLFSPQELE | K, R |
| PS624: amino acid recognition protein, SEQ ID NO: 184 (protein, listed as Eremothecium sinecaudum) MPKNHNHKGRNCGRSFQPGEPLYRCQECAYDDTCVLCIRCFNPLDHVNHHVSTHICSEFNDGICDCGDVEAWNVELNCKAEED | K, R, H |
| PS544: amino acid recognition protein, SEQ ID NO: 173 (protein, listed as Homo sapiens) MGPLGSLCGRVFKSGETTYSCRDCAIDPTCVLCMDCFQDSVHKNHRYKMHTSTGGGFCDCGDTEAWKTGPFCVNHEP | K, R, H |
| PS620: amino acid recognition protein, SEQ ID NO: 180 (protein, listed as Saccharomyces cerevisiae) MGNMHIGTACTRLCFPSETIYYCFTCSTNPLYEICELCFDKEKHVNHSYVAKVVMRPEGRICHCGDPFAFNDPSDAFKCKN | K, R, H |
| PS542: amino acid recognition protein, SEQ ID NO: 171 (protein, listed as Trichuris suis) MRCNHVFANGEATYSCRGCAADPTCVLCASCFELSAHKEHKYMITTSSGTGYCDCGDPEAWKADPFCQQHQP | K, R, H |
| PS629: amino acid recognition protein, SEQ ID NO: 189 (protein, listed as Pichia pastoris) MCPNYKHHGRPCARQFKQGEPIYRCYECGFDETCVMCMHCFNREQHRDHEVSISIASSSNDGICDCGDPQAWNIELHCQSELD | K, R, H |
| Homo sapiens UBR2: amino acid recognition protein, SEQ ID NO: 174 (protein, listed as Homo sapiens) MGPLGSLCGRVFKVGEPTYSCRDCAVDPTCVLCMECFLGSIHRDHRYRMTTSGGGGFCDCGDTEAWKEGPYCQKHE | K, R, H |
| PS621: amino acid recognition protein, SEQ ID NO: 181 (protein, listed as Kluyveromyces marxianus) MHSKFSHAGRICGAKFKVGEPIYRCKECSFDDTCVLCVNCFNPKDHTGHHVYTTICTEFNNGICDCGDKEAWNHTLFCKAEEG | K, R, H |
| PS615: amino acid recognition protein, SEQ ID NO: 175 (protein, listed as Kluyveromyces marxianus) MVNEHRGSQCSKQCHGTETVYYCFDCTKNPLYEICEECFDETQHMGHRYTSRVVTRPEGKVCHCGDISGYNNPEKAFQCKI | K, R, H |
| PS616: amino acid recognition protein, SEQ ID NO: 176 (protein, listed as Kluyveromyces lactis) MHNDHRGSQCSKQCHGTETVYYCFDCTKNPLYEICEDCFDESQHIGHRYTSRVVTRPEGKVCHCGDISSYNDPKKAFQCRI | K, R, H |
| PS628: amino acid recognition protein, SEQ ID NO: 188 (protein, Candida albicans) MSHRAYHKNSPCGRIFRKGEPIHRCLTCGFDDTCALCSHCFQPEYHEGHKVHIGICQRENGGVCDCGDPEAWTQELFCPYAVD | K, R, H |
| PS622: amino acid recognition protein, SEQ ID NO: 182 (protein, listed as Kluyveromyces dobzhanskii) MHSRFNHAGRICASKFKVGEPIYRCKECSFDDTCVICVNCFNPKDHVGHHVYTSICSEFNNGICDCGDTEAWNHDMHCKADEN | K, R, H |
| PS626: amino acid recognition protein, SEQ ID NO: 186 (protein, listed as Zygosaccharomyces parabailii) MYHVYKHSGRNCGRKFKVGEPIYRCHECGYDETCVLCIHCFNPKDHDSHHVYIDICSEFSTGICDCGDTEAFVNPLHCKAEED | K, R, H |
| PS540: amino acid recognition protein, SEQ ID NO: 169 (protein, listed as Clathrospora elynae) MPCGHIFKNGEATYRCKTCTADDTCVLCARCFDASDHEGHQVFVSVSPGNSGCCDCGDDEAWVRPVHCNMHSA | K, R, H |
| PS619: amino acid recognition protein, SEQ ID NO: 179 (protein, listed as Vanderwaltozyma polyspora) MENLHIGSCCNRQCYPTQTVYYCLTCTINPLYEICELCFDEDKHVGHTYISKSVIRPEGKVCHCGNPNVFKKPEFAFNCKN | K, R, H |
| PS617: amino acid recognition protein, SEQ ID NO: 177 (protein, listed as Eremothecium sinecaudum) MPKEHRGTSCNKHCQPTETVYYCFDCTKNPLYEICEECFDADKHLGHRWTSKVVSRPEGKICHCGDPSGLTDPENGYECKN | K, R, H |
| PS543: amino acid recognition protein, SEQ ID NO: 172 (protein, listed as Trichinella spiralis) MKCNRQLICGEPTYCCLDCACDQTCIFCHACFQSSEHKNHRYSMSTSEGSGTCDCGDKEAWKSNYYCLNHKP | K, R, H |

Tested on: not listed separately
Test: Persistence of triplet state quenchers in solution
Type: physicochemical
Conditions: also in the presence of mineral oil
Text: FIGS. 11A-11B show the persistence of cyclooctatetraene (FIG. 11A) and COT-PEG3-sulfonate (triethylammonium salt) (FIG. 11B) in solution.
Cyclooctatetraene (COT)-based triplet state quenchers (TSQs) were used in place of or in addition to the currently used Trolox TSQ. TSQs can enhance photophysical properties of dyes in single-molecule studies, and the optimal TSQ can depend on the class of dye used. Trolox and COT quench triplet states by different mechanisms.
Water-soluble COT conjugates were made to improve solution stability of these TSQs (FIG. 11). The derivatives were made via various amide coupling reactions between COT-CO2H and the appropriate amine. COT-CO2H can be purchased or made in two steps from the parent COT compound.

| Molecule | stability (persistence) in solution |
| --- | --- |
| C1=CC=CC=CC=C1 [unsubstituted COT, cyclooctatetraene] | its concentration drops over time |

Same assay, conditions: sequencing buffer

| Molecule | water solubility |
| --- | --- |
| C1=CC=CC=CC=C1 [unsubstituted COT, cyclooctatetraene] | not fully water-soluble |
